Holding throughout (test): Kinase profiling (radiometric filter-binding)
What all share (type): biochemical

One data set deals with T1, BRSK1 (Homo sapiens, UniProt Q8TDC3).
T1 sequence (Q8TDC3 1-778): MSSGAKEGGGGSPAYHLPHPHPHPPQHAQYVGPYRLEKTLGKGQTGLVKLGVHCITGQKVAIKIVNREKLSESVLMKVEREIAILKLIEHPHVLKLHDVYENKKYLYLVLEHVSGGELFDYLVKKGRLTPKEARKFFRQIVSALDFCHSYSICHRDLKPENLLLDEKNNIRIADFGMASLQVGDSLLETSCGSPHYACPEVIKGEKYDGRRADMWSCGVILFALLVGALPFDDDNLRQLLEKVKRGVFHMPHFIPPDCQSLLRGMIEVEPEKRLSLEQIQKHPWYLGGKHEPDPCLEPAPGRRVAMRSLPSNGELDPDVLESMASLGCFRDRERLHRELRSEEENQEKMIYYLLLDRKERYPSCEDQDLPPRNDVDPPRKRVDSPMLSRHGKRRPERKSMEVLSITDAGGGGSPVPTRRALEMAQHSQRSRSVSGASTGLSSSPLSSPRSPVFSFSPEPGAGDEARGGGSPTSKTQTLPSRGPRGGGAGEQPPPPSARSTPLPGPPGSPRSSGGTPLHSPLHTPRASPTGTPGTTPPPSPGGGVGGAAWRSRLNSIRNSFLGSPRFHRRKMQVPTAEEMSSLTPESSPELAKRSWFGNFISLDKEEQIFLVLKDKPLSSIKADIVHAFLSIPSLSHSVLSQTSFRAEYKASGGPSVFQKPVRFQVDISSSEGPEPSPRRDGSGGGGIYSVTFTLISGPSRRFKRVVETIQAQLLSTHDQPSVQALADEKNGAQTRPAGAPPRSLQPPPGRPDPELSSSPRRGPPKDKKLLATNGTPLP
Particulars: BRSK1, 1 µM inhibitor; read-out: Residual activity, %. The procedure, abridged: (§1)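 Residual kinase activity, as a percentage of the inhibitor-free control, was measured at 1 µM final compound by radiometric filter binding. Each human enzyme was run with ATP no higher than its own KM.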

In the next data set the target is T2, BRSK2 (Homo sapiens, UniProt Q8IWQ3).
T2 sequence (Q8IWQ3 1-736): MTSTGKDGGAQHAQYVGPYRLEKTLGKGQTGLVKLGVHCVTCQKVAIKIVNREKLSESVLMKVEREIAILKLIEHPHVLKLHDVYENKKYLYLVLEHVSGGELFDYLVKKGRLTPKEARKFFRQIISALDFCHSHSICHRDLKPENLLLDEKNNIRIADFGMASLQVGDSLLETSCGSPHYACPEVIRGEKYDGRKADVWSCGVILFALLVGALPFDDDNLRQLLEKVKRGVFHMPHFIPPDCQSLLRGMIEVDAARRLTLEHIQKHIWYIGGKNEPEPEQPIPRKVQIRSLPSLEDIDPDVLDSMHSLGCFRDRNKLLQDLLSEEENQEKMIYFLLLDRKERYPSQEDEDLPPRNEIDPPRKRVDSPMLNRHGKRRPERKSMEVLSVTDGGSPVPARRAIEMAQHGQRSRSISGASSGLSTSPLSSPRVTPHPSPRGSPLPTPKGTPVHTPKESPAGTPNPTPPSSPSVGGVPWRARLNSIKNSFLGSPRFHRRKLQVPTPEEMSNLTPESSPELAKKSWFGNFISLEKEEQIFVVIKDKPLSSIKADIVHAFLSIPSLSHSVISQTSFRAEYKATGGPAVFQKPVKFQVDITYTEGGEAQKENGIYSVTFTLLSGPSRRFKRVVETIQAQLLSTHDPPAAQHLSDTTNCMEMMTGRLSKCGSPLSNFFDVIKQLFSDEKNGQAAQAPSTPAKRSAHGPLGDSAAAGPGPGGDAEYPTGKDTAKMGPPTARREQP
The settings on record: BRSK2, 1 µM inhibitor; read-out: Residual activity, %. The procedure, abridged:
as §1

Another data set concerns the target DAPK1 (Homo sapiens, UniProt P53355). The settings on record: DAPK1, 1 µM inhibitor; read-out: Residual activity, %. In a few lines: as §1
In the next data set the target is EPH-A2 (Homo sapiens, UniProt P29317). Particulars: EPH-A2, 1 µM inhibitor; read-out: Residual activity, %. In a few lines:
as §1

The target of another data set is ERK1 (Homo sapiens, UniProt P27361). Particulars: ERK1, 1 µM inhibitor; read-out: Residual activity, %. The procedure, abridged: as §1
Chain of ERK1 (P27361 whole entry): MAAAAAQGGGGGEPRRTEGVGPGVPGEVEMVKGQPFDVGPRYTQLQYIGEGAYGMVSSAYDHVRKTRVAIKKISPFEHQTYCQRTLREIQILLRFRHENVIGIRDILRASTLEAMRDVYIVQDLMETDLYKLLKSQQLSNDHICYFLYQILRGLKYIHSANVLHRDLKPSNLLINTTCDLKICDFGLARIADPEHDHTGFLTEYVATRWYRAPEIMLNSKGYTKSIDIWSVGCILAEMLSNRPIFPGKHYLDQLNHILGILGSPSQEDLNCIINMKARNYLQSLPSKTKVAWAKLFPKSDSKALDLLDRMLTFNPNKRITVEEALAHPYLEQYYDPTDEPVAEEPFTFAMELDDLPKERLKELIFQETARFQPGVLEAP
The target in a further data set is Lck (Homo sapiens, UniProt P06239). Particulars: 1 µM inhibitor, read-out: Residual activity, %. In a few lines:
as §1

A further data set deals with T3, TTK (Homo sapiens, UniProt P33981).
T3 sequence (P33981 1-857): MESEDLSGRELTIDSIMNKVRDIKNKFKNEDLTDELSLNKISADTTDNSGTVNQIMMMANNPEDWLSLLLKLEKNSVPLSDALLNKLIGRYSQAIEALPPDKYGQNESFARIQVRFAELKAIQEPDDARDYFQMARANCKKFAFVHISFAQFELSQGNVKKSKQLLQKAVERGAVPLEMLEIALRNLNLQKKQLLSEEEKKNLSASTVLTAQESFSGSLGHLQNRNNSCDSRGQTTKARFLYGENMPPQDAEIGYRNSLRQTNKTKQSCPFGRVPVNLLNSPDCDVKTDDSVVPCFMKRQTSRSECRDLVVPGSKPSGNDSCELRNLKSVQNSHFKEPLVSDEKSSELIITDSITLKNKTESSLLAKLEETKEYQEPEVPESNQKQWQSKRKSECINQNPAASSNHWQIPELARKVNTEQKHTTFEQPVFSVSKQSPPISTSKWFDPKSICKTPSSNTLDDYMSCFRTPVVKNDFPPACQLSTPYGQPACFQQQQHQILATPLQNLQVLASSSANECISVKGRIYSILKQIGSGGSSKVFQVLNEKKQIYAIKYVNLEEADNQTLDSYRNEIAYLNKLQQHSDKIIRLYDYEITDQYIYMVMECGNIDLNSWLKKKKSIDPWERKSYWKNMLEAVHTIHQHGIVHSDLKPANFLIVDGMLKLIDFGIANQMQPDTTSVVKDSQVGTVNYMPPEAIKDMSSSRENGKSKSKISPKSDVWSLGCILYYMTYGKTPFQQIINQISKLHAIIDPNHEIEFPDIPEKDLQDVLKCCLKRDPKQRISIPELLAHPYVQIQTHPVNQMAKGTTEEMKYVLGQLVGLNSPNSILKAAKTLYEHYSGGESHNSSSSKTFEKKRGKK
Particulars: 1 µM inhibitor, read-out: Residual activity, %. The procedure, abridged:
as §1

Square brackets hold non-standard residues; d marks the D form. Peptide text beside a SMILES is read from it. * marks the point of attachment. X3 = O=C(CCCCCNCc1nc2c(sc3cc(Br)cnc32)c(=O)[nH]1)*

Chain of DAPK1 (P53355 whole entry): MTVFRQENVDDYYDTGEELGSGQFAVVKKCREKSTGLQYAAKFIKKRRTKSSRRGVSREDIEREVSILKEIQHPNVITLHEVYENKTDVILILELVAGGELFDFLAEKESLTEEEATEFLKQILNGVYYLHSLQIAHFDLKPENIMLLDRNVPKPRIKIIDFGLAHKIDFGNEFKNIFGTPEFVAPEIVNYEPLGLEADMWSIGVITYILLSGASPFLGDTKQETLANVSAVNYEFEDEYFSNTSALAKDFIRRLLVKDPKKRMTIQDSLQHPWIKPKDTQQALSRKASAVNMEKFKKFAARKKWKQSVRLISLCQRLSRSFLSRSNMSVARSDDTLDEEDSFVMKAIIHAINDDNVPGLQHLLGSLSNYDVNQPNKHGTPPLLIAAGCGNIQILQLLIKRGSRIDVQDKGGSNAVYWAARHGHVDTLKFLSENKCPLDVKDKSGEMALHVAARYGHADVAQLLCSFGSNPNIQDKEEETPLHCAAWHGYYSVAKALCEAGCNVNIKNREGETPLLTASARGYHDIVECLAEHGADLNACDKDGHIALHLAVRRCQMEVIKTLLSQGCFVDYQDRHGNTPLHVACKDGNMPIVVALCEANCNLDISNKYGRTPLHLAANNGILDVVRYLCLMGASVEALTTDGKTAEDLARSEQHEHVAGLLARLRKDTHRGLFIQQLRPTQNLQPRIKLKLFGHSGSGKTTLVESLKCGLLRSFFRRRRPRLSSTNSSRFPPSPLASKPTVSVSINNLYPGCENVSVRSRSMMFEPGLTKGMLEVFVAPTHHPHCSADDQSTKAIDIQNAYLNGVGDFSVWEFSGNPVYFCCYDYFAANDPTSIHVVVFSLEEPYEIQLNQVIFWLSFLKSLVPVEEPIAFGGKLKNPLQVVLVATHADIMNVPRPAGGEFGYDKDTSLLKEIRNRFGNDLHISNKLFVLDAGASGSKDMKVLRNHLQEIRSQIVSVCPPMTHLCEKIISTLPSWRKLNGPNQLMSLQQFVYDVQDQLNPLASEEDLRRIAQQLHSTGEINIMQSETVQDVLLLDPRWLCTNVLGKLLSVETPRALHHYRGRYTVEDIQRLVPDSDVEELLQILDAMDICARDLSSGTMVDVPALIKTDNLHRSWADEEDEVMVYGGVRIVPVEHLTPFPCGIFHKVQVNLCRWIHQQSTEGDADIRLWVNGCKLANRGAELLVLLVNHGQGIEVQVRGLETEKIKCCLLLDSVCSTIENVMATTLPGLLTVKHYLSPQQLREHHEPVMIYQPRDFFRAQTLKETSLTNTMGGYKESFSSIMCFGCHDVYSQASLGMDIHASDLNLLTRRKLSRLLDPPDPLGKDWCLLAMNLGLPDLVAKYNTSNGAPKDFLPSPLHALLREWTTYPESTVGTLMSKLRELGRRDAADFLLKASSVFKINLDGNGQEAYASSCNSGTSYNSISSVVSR
Chain of Lck (P06239 whole entry): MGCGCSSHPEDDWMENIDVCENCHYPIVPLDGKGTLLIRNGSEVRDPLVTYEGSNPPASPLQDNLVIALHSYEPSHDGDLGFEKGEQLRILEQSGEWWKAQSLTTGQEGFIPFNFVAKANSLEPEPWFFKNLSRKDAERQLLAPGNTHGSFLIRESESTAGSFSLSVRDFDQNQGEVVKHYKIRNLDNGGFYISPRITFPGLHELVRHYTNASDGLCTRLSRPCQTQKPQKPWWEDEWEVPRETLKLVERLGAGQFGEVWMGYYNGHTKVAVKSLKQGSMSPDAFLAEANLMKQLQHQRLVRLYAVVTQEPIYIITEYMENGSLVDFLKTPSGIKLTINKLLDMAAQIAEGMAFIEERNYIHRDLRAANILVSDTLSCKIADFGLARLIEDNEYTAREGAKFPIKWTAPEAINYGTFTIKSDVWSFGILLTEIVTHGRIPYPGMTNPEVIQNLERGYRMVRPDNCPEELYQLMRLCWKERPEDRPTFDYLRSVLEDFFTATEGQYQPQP
Chain of EPH-A2 (P29317 24-976): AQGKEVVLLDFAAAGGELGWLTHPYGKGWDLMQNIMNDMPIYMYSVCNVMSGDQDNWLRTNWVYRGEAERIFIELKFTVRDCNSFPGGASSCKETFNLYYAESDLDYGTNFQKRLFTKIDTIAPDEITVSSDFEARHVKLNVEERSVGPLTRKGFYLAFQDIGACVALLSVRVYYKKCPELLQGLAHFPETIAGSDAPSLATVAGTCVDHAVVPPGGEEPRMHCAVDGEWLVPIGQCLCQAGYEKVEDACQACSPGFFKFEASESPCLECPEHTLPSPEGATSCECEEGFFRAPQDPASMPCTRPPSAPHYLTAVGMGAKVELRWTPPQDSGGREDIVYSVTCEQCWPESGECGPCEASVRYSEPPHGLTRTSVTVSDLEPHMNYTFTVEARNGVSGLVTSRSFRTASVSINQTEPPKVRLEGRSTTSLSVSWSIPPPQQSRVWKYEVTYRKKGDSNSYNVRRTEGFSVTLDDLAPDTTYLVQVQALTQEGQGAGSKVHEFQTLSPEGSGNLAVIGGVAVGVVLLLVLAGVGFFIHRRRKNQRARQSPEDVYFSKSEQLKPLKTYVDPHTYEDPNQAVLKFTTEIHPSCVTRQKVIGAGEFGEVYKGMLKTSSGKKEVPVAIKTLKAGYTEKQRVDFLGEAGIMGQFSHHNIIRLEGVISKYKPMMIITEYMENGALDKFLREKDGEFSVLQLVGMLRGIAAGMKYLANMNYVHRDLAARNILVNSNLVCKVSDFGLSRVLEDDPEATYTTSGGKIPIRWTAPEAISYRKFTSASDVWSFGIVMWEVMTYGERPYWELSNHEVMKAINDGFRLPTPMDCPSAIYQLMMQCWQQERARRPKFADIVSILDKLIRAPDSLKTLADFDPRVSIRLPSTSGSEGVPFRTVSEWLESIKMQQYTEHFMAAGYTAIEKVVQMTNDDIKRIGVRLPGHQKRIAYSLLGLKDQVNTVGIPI

As for `N=C(N)NCCC[C@@H](NC(=O)CCCCCNC(=O)Cn1cnc2c(I)c(I)c(I)c(I)c21)C(=O)N[C@H](CCCNC(=N)N)C(=O)N[C@H](CCCNC(=N)N)C(=O)N[C@H](CCCNC(=N)N)C(=O)N[C@H](CCCNC(=N)N)C(=O)N[C@H](CCCNC(=N)N)C(=O)N[C@H](CCCCN)C(N)=O` [ARC-3125, TIBI-CH2-C(=O)-Ahx-(D-Arg)6-D-Lys-NH2], the remaining activity at 1 µM in the data set with BRSK1 was 84 ± 2%; with BRSK2, 107 ± 23%; with DAPK1, 18 ± 1%; in the data set with EPH-A2, 108 ± 2%; with ERK1, 89 ± 7%; with Lck it was 226 ± 7%. Also, in the data set with TTK, the remaining activity at 1 µM was 45 ± 1%.

Turning to `N=C(N)NCCC[C@@H](NC(=O)CCCCCNCc1nc2c(sc3cc(Br)cnc32)c(=O)[nH]1)C(=O)N[C@H](CCCNC(=N)N)C(=O)N[C@H](CCCNC(=N)N)C(=O)N[C@H](CCCNC(=N)N)C(=O)N[C@H](CCCNC(=N)N)C(=O)N[C@H](CCCNC(=N)N)C(=O)N[C@H](CCCCN)C(N)=O` [ARC-3126, BPTP-Ahx-(D-Arg)6-D-Lys-NH2] (X3-[dR][dR][dR][dR][dR][dR][dK]-NH2), the remaining activity at 1 µM with BRSK1 is 50 ± 10%; with BRSK2 it was 100 ± 9%; in the data set with DAPK1 it was 49 ± 18%; with EPH-A2, 113 ± 13%; with ERK1, 84 ± 7%; with Lck, 132 ± 28%. Besides, the remaining activity at 1 µM in the data set with TTK was 110 ± 4%.

On to `N=C(N)NCCC[C@@H](NC(=O)CNC(=O)[C@@H](CCCNC(=N)N)NC(=O)[C@@H](CCCNC(=N)N)NC(=O)CCCCCCCNCc1nc2c(sc3cc(Br)cnc32)c(=O)[nH]1)C(=O)N[C@H](CCCCN)C(N)=O` [Compound 1, BPTP-Aoc-(D-Arg)2-Gly-D-Arg-D-Lys-NH2], for which the remaining activity at 1 µM was determined as 107 ± 5% with BRSK1; 124 ± 12% in the data set with BRSK2; 85 ± 3% in the data set with DAPK1; 116 ± 5% with EPH-A2; 119 ± 16% with ERK1; 94 ± 18% with Lck. In addition, the remaining activity at 1 µM in the data set with TTK stood at 113%.

Consider `N=C(N)NCCC[C@@H](NC(=O)CNC(=O)[C@@H](CCCNC(=N)N)NC(=O)[C@@H](CCCNC(=N)N)NC(=O)CCCCCCCNCc1nc2c(sc3ccc(Br)cc32)c(=O)[nH]1)C(=O)N[C@H](CCCCN)C(N)=O` [Compound 2, BBTP-Aoc-(D-Arg)2-Gly-D-Arg-D-Lys-NH2], for which the remaining activity at 1 µM with BRSK1 worked out at 101%; with BRSK2, 108 ± 12%; with DAPK1 it was 60 ± 11%; in the data set with EPH-A2, 113 ± 10%; with ERK1, 125 ± 6%; in the data set with Lck, 103 ± 18%. Further, the remaining activity at 1 µM with TTK was found to be 94 ± 15%.

Turning to `N=C(N)NCCC[C@@H](NC(=O)CNC(=O)[C@@H](CCCNC(=N)N)NC(=O)[C@@H](CCCNC(=N)N)NC(=O)Cn1cc(CNCc2nc3c(sc4ccc(Br)cc43)c(=O)[nH]2)nn1)C(=O)N[C@H](CCCCN)C(N)=O` [Compound 3, BBTP-Amt-(D-Arg)2-Gly-D-Arg-D-Lys-NH2], the remaining activity at 1 µM in the data set with BRSK1 came out at 90 ± 11%; in the data set with BRSK2, 96 ± 8%; with DAPK1, 88 ± 3%; in the data set with EPH-A2, 132 ± 6%; in the data set with ERK1, 107 ± 6%; in the data set with Lck it was 78 ± 6%. Moreover, the remaining activity at 1 µM with TTK was 86 ± 9%.
